According to article PMC7386920, “Evolution of a plant gene cluster in Solanaceae and emergence of metabolic diversity” (eLife, 2020):

Columns and labels:
Experiment in all cases: purified protein
Conditions in all cases: fatty acid varied 0-500 uM, 5 mM ATP, 0.5 mM CoA, 10 mM MgCl2, 1 mM NADH, pH 7.5, 30 C
purified protein [1] = substrate: CCCCCCCC(=O)O
purified protein [2] = substrate: CC(C)CCCCCCC(=O)O; type: biochemical, Solanum lycopersicum
purified protein [3] = substrate: CCCCCC(=O)O; type: biochemical, Solanum lycopersicum
purified protein [4] = substrate: CCCCCCC/C=C/C(=O)O; type: biochemical, Solanum lycopersicum
purified protein [5] = substrate: CCCCCCCCCC(=O)O; type: biochemical, Solanum lycopersicum
purified protein [6] = substrate: CCCCCCCCCCCC(=O)O; type: biochemical, Solanum lycopersicum

B1: Sl-AACS1 (Solanum lycopersicum) (protein)
chain: MNKFFKTSNIALRFFNGSVQLPAPTHRVRQLCQLAGSIESTDESRKLLEGVVTSPANYVPLTPISYLERAADVFGDRTSVVFGSSVKYTWEETHSRCLKLASALIQLGISRGDVVATLAPNVPAMQELHFAVPMAGAVLCTLNTRLDSSMVAYLLKHSETKMIFVDQQFLQIAQQALSLLSKDKTIKPPILILIPESNDSSPPVSNIHEYENLLSSGSSNFTIRWPKSEFDPISINYTSGTTSSPKGVVYNHRGAYLNSISAFLCHGMALMPTYLWTLPMFHCNGWCMNWGVAALGGTNVCLRHVSAKDIFESISVNKVTHMSAAPIVLSMMANASPNDRKPLLHKVEIMTGGSPPPPQILSKMEQLGFGVSHGYGLTETYSGATTCLWKPEWDSLPLEERAALKSRQGVKVLCIERVDVRDPETMENVPADGKSIGEIVCRGNTVMSGYLKDVKSTEEAFKGGWFHTGDVAVKHPDGYIEIKDRLKDIIISGGENISTLEVEGVLHSHPAVVEAAVVARPDDHWGQTPCAFVKLKEGSEEITSDEIIKYCRDHLPHYMVPRAVVFQDLPTTSTGKVQKFILREKAKALASLFNTDRKV
notes: full-length ORF in pET28b, His-tagged (tag removal not mentioned), E. coli BL21 Rosetta, Ni-NTA purified
Km (purified protein [1]): 145.9 ± 10.4 µM | kcat (purified protein [1]): 0.22 ± 0.0067 s⁻¹ | Km (purified protein [2]): 82.1 ± 10.3 µM | kcat (purified protein [2]): 0.227 ± 0.01 s⁻¹ | Km (purified protein [3]): 214.8 ± 40 µM | kcat (purified protein [3]): 0.23 ± 0.02 s⁻¹ | Km (purified protein [4]): 36.4 ± 4.5 µM | kcat (purified protein [4]): 0.0983 ± 0.0033 s⁻¹ | Km (purified protein [5]): 71.8 ± 9.6 µM | kcat (purified protein [5]): 0.0933 ± 0.0033 s⁻¹ | Km (purified protein [6]): 68.1 ± 15.8 µM | kcat (purified protein [6]): 0.07 ± 0.005 s⁻¹
